The source of these data is US20190119346A1 (Stanford University, published 2019).

Numbering of substitutions follows the chain as printed. Names and notes keep the numbering of the source.

The target of assay [1] is CD25 (IL-2Rα) on CD25+ YT-1 cells (human) (UniProt P01589). The experiment in a line: cell-based or functional assay.
For assay [2], the target named is T1, human IL-2Rβ ectodomain (amino acids 1-214), C-terminal hexahistidine tag (human, UniProt P14784 27-240).
T1 construct: range 1-214; also called CD122; IL-2Rβ ECD
T1 sequence: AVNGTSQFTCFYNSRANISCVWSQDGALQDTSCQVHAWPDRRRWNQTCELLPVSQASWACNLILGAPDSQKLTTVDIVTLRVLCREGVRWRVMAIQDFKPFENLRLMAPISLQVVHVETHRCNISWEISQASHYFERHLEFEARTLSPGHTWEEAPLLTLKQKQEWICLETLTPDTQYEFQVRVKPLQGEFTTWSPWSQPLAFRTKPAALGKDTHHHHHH
The experiment in a line: SPR. How it is done: Dissociation was then tracked for 200 s. An irrelevant biotinylated protein was immobilized in the reference channel to subtract non-specific binding from the measurements. Experiments were carried out in HBS-P+ buffer (GE Healthcare) supplemented with 0.2% BSA at 25° C. All binding studies were performed at a flow rate of […] to minimize mass transport contributions and prevent rebinding of the analyte. For all measurements, data analysis and determination of equilibrium and kinetic parameters were implemented using the Biacore T100 evaluation software version 2.0 assuming a 1:1 Langmuir binding model.
(Surface plasmon resonance follows binding to a sensor surface in real time, without labels.)

The target of assay [3] is T1, human IL-2Rβ ectodomain (amino acids …). The assay is described as follows: SPR (Example 10), recombinant protein.
The target is the same in assay [4]. The experiment in a line: surface plasmon resonance.
For assay [5] the target is unchanged. The experiment in a line: SPR affinities of D10 and wild-type IL-2, told with the structure.
Assay [6] has as its target T2, biotinylated IL-2Rβ ectodomain (C-terminal biotin acceptor peptide and hexahistidine tag) (human, UniProt P14784 27-240, C-terminally biotinylated (biotin acceptor peptide, BirA ligase)).
T2 construct: range 1-214; Staining reagent for yeast; also called tetrameric IL-2Rβ; monomeric IL-2Rβ
T2 sequence: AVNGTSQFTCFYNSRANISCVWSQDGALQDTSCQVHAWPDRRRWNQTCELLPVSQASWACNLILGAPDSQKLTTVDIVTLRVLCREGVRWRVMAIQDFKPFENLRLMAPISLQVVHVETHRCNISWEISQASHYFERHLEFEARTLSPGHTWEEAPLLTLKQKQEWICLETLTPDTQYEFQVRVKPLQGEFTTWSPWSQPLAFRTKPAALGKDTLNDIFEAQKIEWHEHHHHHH
The assay is described as follows: yeast clone screen: labeling with 5 nM IL-2Rβ and then SAV-PE. How it is done:
Selection of second generation IL-2 library: The library was subjected to five rounds of selection against IL-2Rβ (FIG. 2B). This selection method was performed exactly as with the first generation library, only with modifications to the concentrations of IL-2Rβ used (round 1—1 μM, round 2—100 nM, round 3—30 nM, round 4—30 nM, round 5—10 nM, all monomeric IL-2Rβ). Upon conclusion of selections, round four and round five yeast cultures were spread on SD-CAA plates, which yielded individual yeast colonies. 48 individual yeast clones from both rounds were grown in 96-well block format and screened by labeling with 5 nM IL-2Rβ and then SAV-PE.

Chain of CD25 (IL-2Rα) on CD25+ YT-1 cells (human) (P01589 22-272): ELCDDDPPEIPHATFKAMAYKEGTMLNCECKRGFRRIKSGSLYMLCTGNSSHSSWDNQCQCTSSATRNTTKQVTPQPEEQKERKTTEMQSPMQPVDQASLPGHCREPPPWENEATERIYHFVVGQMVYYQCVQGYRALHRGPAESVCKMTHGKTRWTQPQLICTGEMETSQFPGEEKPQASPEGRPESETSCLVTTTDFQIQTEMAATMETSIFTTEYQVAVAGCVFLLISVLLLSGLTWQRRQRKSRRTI

As for “IL-2 F42A (from UniProt P60568 21-153) (ligand)”, the STAT5 phosphorylation dose response on CD25+ YT-1 cells in assay [1] is 1 log.

B1: H9-RET (H9 with L18R, Q22E and Q126T) (ligand)
chain: APTSSSTKKTQLQLEHLRLDLEMILNGINNYKNPKLTRMLTFKFYMPKKATELKHLQCLEEELKPLEEVLNLAQSKNFHFDPRDVVSNINVFVLELKGSETTFMCEYADETATIVEFLNRWITFCTSIISTLTHHHHHH
For the molecule B1, in assay [2], the binding result was “binds”.

B2: IL-2 mutein C5 (ligand)
chain: B1 chain with R18L, E22Q, Q74N, F80V, D81T, T126Q
Consider B2, for which the Kd in assay [3] was 10 nM. This molecule also returned a koff in assay [4] of 0.016 s⁻¹.

B3: IL-2 mutein B1 (ligand)
chain: B1 chain with R18L, E22Q, Q74N, I89V, T126Q
B3: in assay [3], the Kd amounted to 1.6 nM. Further, the koff in assay [4] was determined as 0.005 s⁻¹.

B4: IL-2 mutein H4 (ligand)
chain: B1 chain with R18L, E22Q, Q74S, F80L, D81T, V86I, T126Q
As for B4, the Kd in assay [3] stood at 14 nM. For the same molecule, the koff in assay [4] turned out to be 0.013 s⁻¹.

B5: IL-2 mutein H9 (ligand)
chain: B1 chain with R18L, E22Q, T126Q
notes: also called super-IL-2; super-2
As for B5, in assay [3], the Kd was 1.3 nM. In assay [4], this molecule registered a Kd of 1.4 nM, a koff of 0.0056 s⁻¹ and a kon of 4.1e+06 M⁻¹ s⁻¹.

B6: IL-2 mutein G8 (ligand)
chain: B1 chain with R18L, E22Q, Q74N, T126Q
Turning to B6, the Kd in assay [3] is 1.5 nM. The molecule further gave a koff in assay [4] of 0.0049 s⁻¹.

B7: IL-2 mutein E10 (ligand)
chain: B1 chain with R18L, E22Q, Q74S, T126Q
For B7, in assay [3], the Kd was determined as 1.3 nM. Further, the koff in assay [4] was 0.0055 s⁻¹.

B8: IL-2 mutein D10 (ligand)
chain: B1 chain with R18L, E22Q, Q74H, T126Q
notes: also called IL-2 D10; super-2
Turning to B8, the Kd in assay [3] was 1.2 nM. In assay [4], this molecule displayed a dissociation constant (Kd) of 1.3 nM, a koff of 0.0051 s⁻¹ and a kon of 4.1e+06 M⁻¹ s⁻¹. Besides, the fold affinity gain in assay [5] was roughly 300 fold.

B9: yeast-displayed IL-2 clone G8 (ligand)
chain: APTSSSTKKTQLQLEHLLLDLQMILNGINNYKNPKLTRMLTFKFYMPKKATELKHLQCLEEELKPLEEVLNLANSKNFHFDPRDVVSNINVFVLELKGSETTFMCEYADETATIVEFLNRWITFCQSIISTLT
notes: Clone of the second generation yeast library; not shown: yeast display fusion partner and linker encoded by vector pCT302
On to B9, for which, in assay [6], the binding result is given as “binds”.

B10: yeast-displayed IL-2 clone D10 (ligand)
chain: B9 chain with N74H
notes: as for B9
Regarding B10, the binding result in assay [6] is “binds”.

B11: yeast-displayed IL-2 clone E10 (ligand)
chain: B9 chain with N74S
notes: as for B9
B11: the binding result in assay [6] was “binds”.

B12: yeast-displayed IL-2 clone H9 (ligand)
chain: B9 chain with N74Q
notes: as for B9
As to B12, in assay [6], the binding result was “binds”.

B13: yeast-displayed IL-2 clone B1 (ligand)
chain: B9 chain with I89V
notes: as for B9
On to B13, for which the binding result in assay [6] is “binds”.

B14: yeast-displayed IL-2 clone H4 (ligand)
chain: B9 chain with N74S, F80L, D81T, V86I
notes: as for B9
For the molecule B14, the binding result in assay [6] is “binds”.

B15: yeast-displayed IL-2 clone C5 (ligand)
chain: B9 chain with F80V, D81T
notes: as for B9
B15: in assay [6], the binding result is reported as “binds”.

Broadly, the Kd is the constant that tells how readily two partners part at equilibrium. The term koff denotes the rate constant with which the complex falls apart. Higher therefore signals a short-lived complex. In general, kon refers to the rate constant with which the complex forms. Low readings indicate slower complex formation, high ones faster complex formation.
